Laboratory results published in US5770702, “Fibronectin binding protein as well as its preparation” (dated 1998).

Target: Human fibronectin (intact) (human, UniProt P02751-8, 125I-labelled in the cell binding assays; coupled to Sepharose in the affinity chromatography)
Assay: inhibition of labelled fibronectin binding to S. aureus cells

B1: 165 kD fibronectin binding protein (FNBP) isolated from E. coli pFR001 (receptor)
chain: ASEQKTTTVEENGNSATDNKTSETQTTATNVNHIEETQSYNATVTEQPSNATQVTTEEAPKAVQAPQTAQPANIETVKEEVVKEEAKPQVKETTQSQDNSGDQRQVDLTPKKATQNQVAETQVEVAQPRTASESKPRVTRSADVAEAKEASNAKVETGTDVTSKVTVEIGSIEGHNNTNKVEPHAGQRAVLKYKLKFENGLHQGDYFDFTLSNNVNTHGVSTARKVPEIKNGSVVMATGEVLEGGKIRYTFTNDIEDKVDVTAELEINLFIDPKTVQTNGNQTITSTLNEEQTSKELDVKYKDGIGNYYANLNGSIETFNKANNRFSHVAFIKPNNGKTTSVTVTGTLMKGSNQNGNQPKVRIFEYLGNNEDIAKSVYANTTDTSKFKEVTSNMSGNLNLQNNGSYSLNIENLDKTYVVHYDGEYLNGTDEVDFRTQMVGHPEQLYKYYYDRGYTLTWDNGLVLYSNKANGNEKNGPIIQNNKFEYKEDTIKETLTGQYDKNLVTTVEEEYDSSTLDIDYHTAIDGGGGYVDGYIETIEETDSSAIDIDYHTAVDSEAGHVGGYTESSEESNPIDFEESTHENSKHHADVVEYEEDTNPGGGQVTTESNLVEFDEESTKGIVTGAVSDHTTVEDTKEYTTESNLIELVDELPEEHGQAQGPVEEITKNNHHISHSGLGTENGHGNYDVIEEIEENSHVDIKSELGYEGGQNSGNQSFEEDTEEDKPKYEQGGNIVDIDFDSVPQIHGQNKGNQSFEEDTEKDKPKYEHGGNIIDIDFDSVPHIHGFNKHTEIIEEDTNKDKPSYQFGGHNSVDFEEDTLPKVSGQNEGQQTIEEDTTPPIVPPTPPTPEVPSEPETPTPPTPEVPSEPETPTPPTPEVPSEPETPTPPTPEVPAEPGKPVPPAKEEPKKPSKPVEQGKVVTPVIEINEKVKAVAPTKKPQSKKSELPETGGEESTNKGMLFGGLFSILGLALLRRNKKNHKA
fold more active than the 87 kD protein on a molar basis: 30 times
